In PMC11874374:

Key:
[1] = target: histidine-tagged JAM-A (human) (UniProt Q9Y624); experiment: non-reducing gel electrophoresis
[2] = target: recombinant human JAM-A (Junctional Adhesion Molecule-A) (human) (UniProt Q9Y624); experiment: non-reducing gel electrophoresis

stoichiometry N [1] | stoichiometry N [2] | Substance
2 | – | histidine-tagged JAM-A (from UniProt Q9Y624 28-299) (natural protein)
– | 3 | recombinant human JAM-A (Junctional Adhesion Molecule-A) (from UniProt Q9Y624 28-299) (natural protein)
